In article PMC2946090 (Nature, 2010):

Target: the molecule itself
Assay: crystal structure

B1: CusA efflux pump (full-length CusA membrane protein with a 6xHis tag at the N-terminus) (natural protein, E. coli, UniProt P38054 1-1047, looked up)
chain: MIEWIIRRSVANRFLVLMGALFLSIWGTWTIINTPVDALPDLSDVQVIIKTSYPGQAPQIVENQVTYPLTTTMLSVPGAKTVRGFSQFGDSYVYVIFEDGTDPYWARSRVLEYLNQVQGKLPAGVSAELGPDATGVGWIYEYALVDRSGKHDLADLRSLQDWFLKYELKTIPDVAEVASVGGVVKEYQVVIDPQRLAQYGISLAEVKSALDASNQEAGGSSIELAEAEYMVRASGYLQTLDDFNHIVLKASENGVPVYLRDVAKVQIGPEMRRGIAELNGEGEVAGGVVILRSGKNAREVIAAVKDKLETLKSSLPEGVEIVTTYDRSQLIDRAIDNLSGKLLEEFIVVAVVCALFLWHVRSALVAIISLPLGLCIAFIVMHFQGLNANIMSLGGIAIAVGAMVDAAIVMIENAHKRLEEWQHQHPDATLDNKTRWQVITDASVEVGPALFISLLIITLSFIPIFTLEGQEGRLFGPLAFTKTYAMAGAALLAIVVIPILMGYWIRGKIPPESSNPLNRFLIRVYHPLLLKVLHWPKTTLLVAALSVLTVLWPLNKVGGEFLPQINEGDLLYMPSTLPGISAAEAASMLQKTDKLIMSVPEVARVFGKTGKAETATDSAPLEMVETTIQLKPQEQWRPGMTMDKIIEELDNTVRLPGLANLWVPPIRNRIDMLSTGIKSPIGIKVSGTVLADIDAMAEQIEEVARTVPGVASALAERLEGGRYINVEINREKAARYGMTVADVQLFVTSAVGGAMVGETVEGIARYPINLRYPQSWRDSPQALRQLPILTPMKQQITLADVADIKVSTGPSMLKTENARPTSWIYIDARDRDMVSVVHDLQKAIAEKVQLKPGTSVAFSGQFELLERANHKLKLMVPMTLMIIFVLLYLAFRRVGEALLIISSVPFALVGGIWLLWWMGFHLSVATGTGFIALAGVAAEFGVVMLMYLRHAIEAVPSLNNPQTFSEQKLDEALYHGAVLRVRPKAMTVAVIIAGLLPILWGTGAGSEVMSRIAAPMIGGMITAPLLSLFIIPAAYKLMWLHRHRVRK
- stoichiometry N: 3
